Assay results as given in publication PMC9239388 (Journal of Inflammation Research, 2022).

Biological target: the molecule itself
Assay: crystal structure

B1: human anionic trypsin (TRY2), enterokinase activated, cleaved at the Arg122-Val123 bond (enzyme)
chain 1: IVGGYICEENSVPYQVSLNSGYHFCGGSLISEQWVVSAGHCYKSRIQVRLGEHNIEVLEGNEQFINAAKIIRHPKYNSRTLDNDILLIKLSSPAVINSR
chain 2: VSAISLPTAPPAAGTESLISGWGNTLSSGADYPDELQCLDAPVLSQAECEASYPGKITNNMFCVGFLEGGKDSCQGDSGGPVVSNGELQGIVSWGYGCAQKNRPGVYTKVYNYVDWIKDTIAANS
B1: binds.
